Experimental data reported in paper PMC4861830, “Isolation and Characterization of Three New Monoterpene Synthases from Artemisia annua” (Frontiers in Plant Science, 2016).

Substrate: CC(C)=CCC/C(C)=C/COP(=O)(O)OP(=O)(O)O
Experiment: purified protein
Type: biochemical, Artemisia annua
Conditions: Mg2+ (5 mM MgCl2), 25 mM HEPES pH 7.0, 5 mM DTT, 30 °C, GPP 3-100 μM
[1] = Table 1 prints 19.74 (text and table disagree; printed kcat/Km 7.66 × 10^4 fits 19.47)

Protein	Km [1]	kcat [1]	Km	kcat	kcat/Km
AaTPS5 (Artemisia annua) (protein, N-terminal 57-residue plastid signal peptide removed (before RR motif; full length 602 residues); pET-32a fusion tag kept; E. coli BL21(DE3); Ni-NTA) IRRSAGYPPSLWPYERIQAINSIYTGEKYASRLETLKEEVRNMIYKENEKAENPLSTLNLVDDLQRLGIWYHFVDDINNVLDNVYNKYYKSPEKWNTLDLNLKALGFRLLRHNGYHITQDIFEDIQDETRIMGHTIEDTLGLLNLYEASYHSFEDENILDEARAFTKKYLQGSLGKIDDQYLSSLTSRALDMPLHWRIARVETIWFMEAYEKRSGMNPTVLDLAKLDFNMVQAVHQEDLKYASRWWRTTKWDDKLSFARDRLVENYMWTIGNSYRPQFTLLRRILTKVFAIITTVDDVYDVHGTLDELERFTDVISRWNIYAIEELPDYMKICFLGFYNSVNDMAYTTLTDTGFFILPYLQKAWEDLCKAYLVEARWYHTKYMPTFKEYLDIAEVSISVPLMLTHISFVMNVCSTEEVIQSMDKIKNLIRYSSQILRLADDLGTSSDEMARGDTPKSIQCYMHETGATEEEARAHVRSLIIKVWQKLNKERAGLKTTYLKEFGECAANFGRMAQFMYQVADGHGHNIDLTEAYVLSLVVNPIQGV	19.47 µM	1.49 s⁻¹	–	–	–
AaTPS2 (Artemisia annua) (protein, N-terminal 46-residue plastid signal peptide removed (before RR motif; full length 586 residues); pET-32a fusion tag kept; E. coli BL21(DE3); Ni-NTA) VRRTANYEPTLWSYDHIQSLSSKYTGEEYAARANILKNSVKRLLGEVENSPSILELVNDLQRLGIYYHFEDEIRNALEMIYYKYYKTPDKWGKMDLNLTALGFRLLRQHGYQVPQEIFQNFLDNAQNLKPHLLEEIAGMLNLYEASYHAFEDETILDNARAFTTKYLKENLDKIDGHILSLVSHALEFPLHWRVPRVEAKWYIEVYEKKNGMNHILIELAKLDFDMVQAIHLEDLKHASRWWRNTNWDKKLSFARDRLVENFLWTIGFNYLPQFSHGRRTLTKVNALITTIDDVYDVFGTLDEIEQFTDATNRWDINSIEELPDYMKICFLGFYNTINEITYNALTNKRFIILPYLKKAWGDLFKSFVVEANWYQSGHIPTLEEYLENGCISISGPVILMHVHFITSISSAEEIMQCMEISKDIVRYSSLIFRLTDDLGTSSGEMERGDNPKSLQCYMHETGASEDEARIYMKSLIGETWKKLNKERTHASSDITREFIDFATNLVRMAQFMYGEGDVHGRPDVTKSHVLSLLFNPIQEI	–	–	8.25 µM	0.52 s⁻¹	63100 M⁻¹ s⁻¹
AaTPS6 (Artemisia annua) (protein, N-terminal 46-residue plastid signal peptide removed (before RR motif; full length 587 residues); pET-32a fusion tag kept; E. coli BL21(DE3); Ni-NTA) GRRSANYEPSLWSFDHVQSLSSKYTGKNYVSRADSLKKIVKTMIHEVGNPSTALELVDDLQRLGIWYHFEDEISNVLEMIYRDFYDNEDRCSKMDMNFKALSFRLLRQHGYHVPQEIFHNFKEKTQNLKPYLHEDMVVMLNIYEASYYSYEDESIMDDARDFTAKYLKENHDSIDESISSLVSHALEFPLHWRIPREEAKWFIEFYEKRSGRNPTLIELAKLDFNMVQSIHLEDLKHASRWWRNTCWDKELPFARDRLMENFLWTVGVNYLPRFSLGRRTLTKVNAMITTIDDVYDVFGTIDELEKFTEVTNRWDINAVEELPDYMQICFIAFYNSINEIAYNTLTDTKFLILQYLKKGWVDLCNSYLKEAQWYESGYVPTLEEYLENAYVSISAPVILTHVNFLTTITSKEEILQFMETSDNIVRYSSLILRLADDLGTSSLEMARGDVPKSIQCYMHESGASEDEARMHIKDLILETWKKFNKEREHVKSKIAREFTYCAMNLGRMAQFMYREGDGHGHLSDVTKSHVLSWLINPIQGM	–	–	17.70 µM	4.46 s⁻¹	252000 M⁻¹ s⁻¹
